# Measured values from the nanobody polyreactivity screen of Harvey et al. (2022).
# Experiment: yeast display, Sf9 membrane polyspecificity reagent, FACS + sequencing; frameworks hold sequencing errors
# In short: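 Polyreactivity labels are assigned by the sorting gate from which each nanobody was recovered. The gates were low and high (top ~1%), set on anti-HA fluorescence for expression and streptavidin fluorescence for reagent binding. Before sorting, galactose-induced (36–48 hours) yeast display cells were stained for 1 hour at 4 °C with 10% biotinylated, detergent-solubilized Sf9 membrane reagent.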
row,Sequence,polyreactivity (PSR sort gate)
1,QVHLVESGGGLVQAGGSLRLRCAASGSNLESYAMGWYRQAPGKEMELVADITYDGGITYYADSVKGRFTISRDNAKNTVYLQMNSLKPEDTAVYYCATEYRYWQSDYSTYFPYDYWGQGTQVTVSS,low polyreactivity
2,QVQLVESGGGLVQAGGSLRLSCAASGGIFFYSAMGWYRQAPGTERELVAAISYSGGSTYYADSVKGRFTISRDIAKNTVYLQMISLKPEDTAVYYCAADVYSESKSGIYEYWGQGTQVTVSS,low polyreactivity
3,QVQLVESGGGLVQAGGSLRLSCAASGRTFGIYAMGWYRQAPGKEREFVAAISWSGTSTHYADSVKGRFTISRDNAKNTVYLQMNSLKPEDTAVYYCNADSRTYRYYWSYGYWGQGTQVTVSS,high polyreactivity
4,QVQLVESGGGLVQAGGSLRLSCAASGSTLRRNAMGWSRQAPGKERELVAAITGSRGSTFYADSVKGRFTISRDNAKNTVYLQMNSLKPEDTAVYYCAVYKWSTRVSQYRYDYWGQGTQVTVSS,high polyreactivity
5,QVQLVESGGRSVQAGGSRRLSCAASGFSFHYYAMGWYRAAPATERELVAAITSRGTATYYADSVKGRFTISRDTAKITVDLLMNCLKPEDTAVYYCAKASTERMGSWGQGTQVTVSS,high polyreactivity
6,QVQLVESGGGLVQAGGSLRLSCAASGRTFPRNAMGWYRQAPGKERELVAAISYGGGRTYYADSVKGRFTISRDNAKNTVYLQMNSLKPEDTAVYYCATVRRTDYPLGMDYWGQGTQVTVSS,high polyreactivity
7,QVQLVESGGGLVQAGGSLRLSCAASGSTIGFYAMGWYRQAPGKERELVAANSWTGGGTYYADSVKGRFTISRDNAKITVYLQMNSLKPEDTAVYYCARLYYFNGDFWGQGTQVTVSS,high polyreactivity
8,QVQLVESGLGLVQAGGSLRLSCAASGTTLLGYAMGWYRQAPGKERELVAAITGSGGRTSYADSVKGRFTISRDNAKNTVYLQMNSLKPEDTAVYYCAAARRYHFQRFNYWGQGTQVTVSS,high polyreactivity
9,QVQLVESGGGLVQAGGSLRLSCAASGFTFSVNAMGWYRQAPGKERELVAAITRSGGRTYYADSVKGRFTISRDNAKNTVYLQMNSLKPEDTAVYYCATPRSRTDGYDYWGQGTQVTVSS,high polyreactivity
10,QVQLVESGGGLVQAGGSLRLSCAASGSTFSRYAMGWSRQAPGKERELVAVITGSGGSTYYADSVKGRFTISRDNAKNTVYLQMNSLKPEDTAVYYCNAVYFALSPQYYWAASDYWGQGTQVTVSS,high polyreactivity
11,QVQLQESGGGLVQAGGSLRLSCAASGNIFLSIFMGWYRQAPGKEREFVAGIGSGTNTNYADSVKGRFTISRDNAKNTVYLQMNSLKAEDTAGYYSAAGRYGLYYHGYWGQGTQVTVSS,high polyreactivity
12,QVQLVESGGRVDQAGGSLRLRCAASGRTFPVYAMGWYRQAPGKERELVAAITRCDDSTYYADSVKGRFTISRDNAKNTVYFEMNSLKPEDTAVYYCARSSRESYEYDYWGQGTQVTVSS,low polyreactivity
13,QVQLQESRGGLVQAGGSLRLSCAASGSITHYIFMGWYRQAPGKEREFVAGIGYGGTTNYADSVKGRFTISRDNAKNTVFLQMNSLKPEDTAMYYCAAREATEFYLYYWGQGTQVTVSS,low polyreactivity
14,QVQLVESGGGLVQAGGSLRLSCAASGRTSRSYTMGWYRQAPGKERELVAAITRGGRTYYADSVKGRFTISRDNAMNTVYLQMNSLKPEDTAVYYCATDRVQSYGYWGQGTQVTVSS,low polyreactivity
15,QVQLVETGGGLVQAGGSLRLSCAASGSTFYHNAMGWYRQAPGKERELVAAISIGGGRTYYADSVKGRFTISRDNAKNTVYLQMNSLKPEDTAVYYCAAGSPAVYGRGFNYWGQGTQVTVSS,low polyreactivity
16,QVQLVESGGGLVQAGGSLRLSCAASGSIFYGYAMGWYRQATGKERELVAAITSGGSTYYADSVKGRFTISRDNAKNTVYLQMNSLKPEDTAVYYCAADYPSRYWRIDYEYWGQGTQVTVSS,high polyreactivity
17,QVQLVESGGGLVQAGGSLRLSCAASGFIFWSYAMGWYRQERGNEREWVAAISWSGGRTYYADSVKGRFTISRDNAKNTVYLQMNSLKPEDTAVYYCAAVKRDSSQYPALDYWGQGTQVTVSS,high polyreactivity
18,QVQLVESGGGLVQAGGSLRLSCAASGRTLWRYAMGWYRQAPGKERELVASIRSGGSTYYADSVKGRFTISRDNAKNTVYLQMNSLKPEDTAVYYCAARYYWGAEAGYYYWGQGTQVTVSS,high polyreactivity
19,QVQLVESGGGLVQAGGSLRLSCAASGSTFTGNAMAWYRQAPGKERELVAAISRSGGSTFYADYVKGRFTISRDNAKNTVYLQMNSLKPEDTAVYYCATRYVVDMDYWGQGTQVTVSS,high polyreactivity
20,QVQLVESGGGLVQAGGSLRLSCAASGRIFVSNGMGWYRQAPGKERELVAVIRYSTGSTYYADSVKGRFTFSRDNAKTTVYLQMNCLKPEDTAVYYCAARNPFFEPSEYDYWGQGTQVTVSS,low polyreactivity
21,QVQLVESGGGLVQAGGSLRLSCAASGSIFKYYAMGWYRQAPGTERELVAAISTGGTTNYADSVKGRFTISRDNAKNTVYLQMNSLKPEDTAVYYCNRDYLVRSRYKYYYWGQGTQVTVSS,low polyreactivity
22,QVQLVESGGGLVQAGGSLRLSCAASGITFVKNAMGWYRQAPGKERELVARIRIGGSTSYADSVKGRFTFSRDNAKNTVYLQMNSLKPEDTAVYYCARYAGRLSYRYEYWGQGTQVTVSS,high polyreactivity

row,Sequence,polyreactivity (PSR sort gate)
1,QVQLVESGGGLVQAGGSLRLSCAASGRTYLPNDMGWYRPAPGKERELVAAITDSGGDTYYADSVKGRFTISRDIAKNTVYLQMNSLKPEDTAVYYCAADYYYYGSYYPVEYWGHGTQVTVSS,high polyreactivity
2,QVQLVDSGGGLVQAGGSLRLSCAASVRIFYEYAMGWYRKAPGKERQFVASISRTDGGTYYADSVKGRFTISRDNAKNTVYLQMNSLKPEENAVYYCATRAYYNTEVYYWGQGTQVTVSS,high polyreactivity
3,QVQLVESGGGLVQAGGSLRLSCAASGRTFGSNAMGWYRQAPGKERQLVAAITRRGGSTYYADSVKGRFTISRDNAKNTVYLQMNSLKPEDTAVYDCATDPVSTRGSDYWGQGTQVTVSS,low polyreactivity
4,QVQLVESGGGLVQAGGSLRISCAASGSIFTRYAMGWYRQAPGKERELVAAIRTSGGSTYYADSVKARFTISRDNAKNTVYFQMNSLKPEDTAVYYCARRYYKSNFYYWGQGTLVTVSS,high polyreactivity
5,QVQLVESGGGLVQAGGSLRLSCAASGRTFQRYTMGWYRPAPGKETELVAVITNGGTRTYYADYVKGRLTISRDYAKNTVYLQMNSLKPEYTAVYYCAARVRYTANYDYWGQGTQVTVSS,high polyreactivity
6,QVQIVESGGGVVQAGGSLRLSCAASGYILDRNSMGWYRQAPGKERELVAVISWGGTRTYYADSVKGRFTISRDNAKNTVSLQMNSLKPVDTAVYYCNGKGWYYKYDYWGQGTQVTVSS,high polyreactivity
7,QVQLVESGGGLVQAGGSLRLSCAASGSTFNRNAMGWYRQAPGKERELVAAISWRGDSTSYADSVKGRFTISRDNAKNTVYLQMNSLKPEDTAVSYCAADYYYGQGQPDEDNYWGQGTQVTVSS,low polyreactivity
8,QVQLVESGGGLVQAGGSLRLSCAASGFTFPYYAMGWYRQAPGKERELVAAISSGGNTNYADSVKGRFTISRDNAKNTVYLQMNSLKPEDTAVYYCAAVFLRYLNWSVKYDYWGQGTQVTVSS,low polyreactivity
9,QVQLQESGSGLVQAGGSLRLSCAAIGAIFPAYLMGWYRQAPGKERELVAGISYGSITYCADSVKGRFNISRDNAKNTVYLQMNSLKPEYTAVYYCAVWRPGGDEYYYWGQGTQVTVSS,low polyreactivity
10,QVQLVESGGGLVQAGGSLRLSCAASGSIFGRYAMGWYRQAPGKERELVAAISWNGGSTYYADSVKGRFTISRDNAKNTVYLQMNILKPEDTAVYYCAADSGYSGYYYWGQGTQVTVSS,high polyreactivity
11,QVQLVESGGGLVQAGGSLRLSCAASGSTFEYYAMGWYRQAPGKERELVAAITRRGGSTYYADSVKGRFTISRDNAKNTVYLQMNSLKPEDTAVYYCAAVPTQKSPRTHDFWGQGTQVTVSS,low polyreactivity
12,QVQLVESGGGLVQAGGSLRLSCAASGITFRGYAMGWYRQAPGKERELVATISSGGSTNYADSVKGRFTISRDNAKNTVDLQRISLKPEDTAVYYCNAVYRRGYGYWGQGTQVTVSS,high polyreactivity
13,QVQLVESGGGIVQAGGSLRLSCAASGRIFSVNAMGWYRQAPGKERELVAAITGSGTITYYADSVKGRFTISRDNAKNSVYLQMNSLKPEDTAVYYCAARPVLRYYAGYYYWGQGTQVTVSS,high polyreactivity
14,QVQLVESGGCLVQAGRSLRLSCAASGIIFGGNVMGWYRQAAGKERQLVAAINWSVVTTYYADSVKGRFTISRDNAKNTVYLQMNSLKAADTAVYYCNKDYVTAPYFYFIDTMDYWGQGTQGTVSS,low polyreactivity
15,QVQLVESGGGLVQAGGSLRLSCAASGITFNYYVKGWYRQAPGKERELVAAIRRGGSTNYADSVKGRFTISRDNAKNTVYLQMNSLKPEDTAVYYCASRTYRGLAYDYWGQGTQVTVSS,high polyreactivity
16,QVQLVESVGGLVQAGGSLRLSCAASVFIFRSYAMGWYRQAPGKERELVASISRRGASTYYADSVKGRFTISRDNAKNTVYLQMNSLKPEDTAVYYCNADGLRGFYTGAYDYDYWGQGTQVTVSS,high polyreactivity
17,QVQLVESGGGLVQAGGSLRLSCAASGSTLYRYAMGWYRQAPGKERELVAAISSAGSTHYADSVKGRFTISRDNAKNNVYLQMKSLKPEDTAVYYCNAKGYLHRSRYDYWGQGTQVTVSS,high polyreactivity
18,QVQLVESGGGLVQAGGSLRISCAASGITFKKNDMGWYRQAPGKERELVAAISGRGGSTYYADSVKGRFTISRDNAKNTVYLQMNSLKPEDTAVYYCAADNFKGDSYGTGTYDYWGQGTQVTVSS,high polyreactivity
19,QVQLVESGGGLVQAGGSLRLSCAASGSIFSYNAMGWYRKAPGKERELVAAIRASGGDTYYADSVKGRFTISRDNAKNTVYLQMNSLKPEDTAVYYCAARTYAHHYASHGYWGQGTQVTVSS,low polyreactivity
20,QVQLVESGGGLVQAGGSLRLSCAASGTTFTFNAMGWYRQAPGKEREFVAAITASGGRTYYADSVKGRFTISRDNAKNTVYLQMNSLKPEDTAVYYCAAHACLLGPGDFNYWGQGTQVTVSS,low polyreactivity
21,QVQLVESGGRLVQAGGSLRLSCAASGSTFYTNAMGWYRQSPGKEMELVAAITSNGDSTYYADSVKGRFTISRDNAKNTVYLQMNSLKPEDTAVYYCAAREFYGGYDNNYDYWGQGTQVTVSS,low polyreactivity
